Patent US12139520B2 (priority 2020, dated 2024)
Numbered stars: 1 amine (or outer) side, 2 acyl side, 3 side chain; on linkers, the order of the positions; unused ones are H or OH. Bridge positions count the residues as written; N and C are the ends. Square brackets hold non-standard residues; d marks the D form. Side chains are listed from the residue outwards. Ends that are not written are not given here. * marks the point of attachment. C20 diacid = O=C(O)CCCCCCCCCCCCCCCCCCC(=O)*; γGlu = O=C(O)[C@H](CCC(=O)[*:2])N[*:1]; Hyp = O=C(O)[C@@H]1C[C@@H](O)CN1; AEEA = NCCOCCOCC(=O)O

T1: hAMY3R (human, UniProt P30988)
T1 sequence 1: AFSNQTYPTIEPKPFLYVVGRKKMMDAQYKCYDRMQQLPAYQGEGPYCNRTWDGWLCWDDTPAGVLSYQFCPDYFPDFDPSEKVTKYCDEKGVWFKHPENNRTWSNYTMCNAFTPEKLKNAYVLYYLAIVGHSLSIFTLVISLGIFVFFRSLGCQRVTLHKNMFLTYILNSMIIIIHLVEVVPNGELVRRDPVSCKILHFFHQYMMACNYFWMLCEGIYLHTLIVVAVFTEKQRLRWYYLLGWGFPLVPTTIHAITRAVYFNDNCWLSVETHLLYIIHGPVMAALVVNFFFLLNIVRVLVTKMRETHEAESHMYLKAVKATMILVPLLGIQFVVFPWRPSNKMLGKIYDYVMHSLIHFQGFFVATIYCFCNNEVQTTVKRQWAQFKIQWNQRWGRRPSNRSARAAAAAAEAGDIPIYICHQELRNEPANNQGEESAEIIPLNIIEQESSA
T1 sequence 2: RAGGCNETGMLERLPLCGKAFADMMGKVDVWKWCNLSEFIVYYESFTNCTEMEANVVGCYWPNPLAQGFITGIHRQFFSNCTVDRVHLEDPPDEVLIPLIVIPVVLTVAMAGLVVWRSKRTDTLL


Experiments:
hAMY3R = molecular target: T1, hAMY3R; assay: cell-based or functional assay
hAM1R = hAM1R (human, UniProt Q16602); assay: cell-based or functional assay

| Binder | hAMY3R EC50 (cAMP) (hAMY3R) [nM] | hAM1R EC50 (cAMP) (hAM1R) [nM] |
| --- | --- | --- |
| GCRTGTCTVQWLAHQIYQFTDKDKDNVAPRTKVGPQG[Hyp]-NH2 (disulfide 2-7 (inferred); ends not checked) [SEQ ID NO: 349] | 0.046 | > 5000 |
| GCRFGTCTVQWLAHQIYQFTDKDKDNVAPRTKISPQG[Hyp]-NH2 (disulfide 2-7 (inferred); ends not checked) [SEQ ID NO: 350] | 0.044 | 1180 |
| GCRFGTCTVQWLAHQIYQFTDKDKDNVAPRSKVGPQG[Hyp]-NH2 (disulfide 2-7 (inferred); ends not checked) [SEQ ID NO: 353] | 0.027 | 2920 |
| GCRTGTCTVQWLAHQIYQFTDKDKDNVAPRTNIGPQG[Hyp]-NH2 (disulfide 2-7 (inferred); ends not checked) [SEQ ID NO: 341] | 0.029 | > 5000 |
| GCRTGTCTVQWLAHQIYQFTDKDKDNVAPRSKVGPNG[Hyp]-NH2 (disulfide 2-7 (inferred); ends not checked) [SEQ ID NO: 347] | 0.068 | > 5000 |
| GCRFGTCTVQWLAHQIYQFTDKDKDNVAPRTKIGPQG[Hyp]-NH2 (disulfide 2-7 (inferred); ends not checked) [SEQ ID NO: 336] | 0.029 | 738 |
| GCRFGTCTVQWLAHQIYQFTDKDKDNVAPRTKISPNG[Hyp]-NH2 (disulfide 2-7 (inferred); ends not checked) [SEQ ID NO: 337] | 0.019 | 1580 |
| GCRTGTCTVQWLAHQIYQFTDKDKDNVAPRSNIGPNG[Hyp]-NH2 (disulfide 2-7 (inferred); ends not checked) [SEQ ID NO: 352] | 0.04 | 1120 |
| KCK([AEEA-AEEA-γGlu-C20 diacid])TATCTVQRLAEQIYQFTDKDKDNVAPPTNVGSNG[Hyp]-NH2 (disulfide 2-7 (inferred); ends not checked) [SEQ ID NO: 36] | 0.009 | > 5000 |
| GCRIGTCTVQWLAHQIYQFTDKFKDNVAPRSKISPQT[Hyp]-NH2 (disulfide 2-7 (inferred); ends not checked) [SEQ ID NO: 351] | 0.943 | > 5000 |
| GCRTGTCTVQWLAHQIYQFTDKDKDNVAPRTKIGPNG[Hyp]-NH2 (disulfide 2-7 (inferred); ends not checked) [SEQ ID NO: 339] | 0.047 | > 5000 |
| {C20 diacid-γGlu}-KCNTATCTVQRLAHQIQQFTDKDKDNVAPPTNVGSNG[Hyp]-NH2 (disulfide 2-7 (inferred); ends not checked) [SEQ ID NO: 35] | 0.009 | > 5000 |
| KCNTATCTVQWLAHQIYQATDKDKDNVAPPTNVGSNG[Hyp]-NH2 (disulfide 2-7 (inferred); ends not checked) [SEQ ID NO: 338] | 0.089 | > 5000 |
| {C20 diacid-γGlu}-KCNTATCTVARLAHQIYQFTDKDKDNVAPPTNVGSNG[Hyp]-NH2 (disulfide 2-7 (inferred); ends not checked) [SEQ ID NO: 37] | 0.01 | > 5000 |
| GCRTGTCTVQWLAHQIYQFTDKDKDNVAPRSNVGPQG[Hyp]-NH2 (disulfide 2-7 (inferred); ends not checked) [SEQ ID NO: 342] | 0.054 | > 5000 |
| GCRFGTCTVQWLAHQIYQFTDKDKDNVAPRTKIGPNG[Hyp]-NH2 (disulfide 2-7 (inferred); ends not checked) [SEQ ID NO: 343] | 0.017 | 117 |
| GCRFGTCTVQWLAHQIYQFTDKDKDNVAPRTNVSPQGY [SEQ ID NO: 340] | 0.022 | 671 |
| GCRFGTCTVQWLAHQIYQFTDKDKDNVAPRSNVSPQGY [SEQ ID NO: 345] | 0.051 | 113 |
| GCRTGTCTVQWLAHQIYQFTDKDKDNVAPRSKVGPQGY [SEQ ID NO: 344] | 0.121 | > 5000 |
| GCRTGTCTVQWLAHQIYQFTDKDKDNVAPRSNVGPQGY [SEQ ID NO: 346] | 0.085 | > 5000 |
| GCRTGTCTVQWLAHQIYQFTDKDKDNVAPRTNIGPNGY [SEQ ID NO: 348] | 0.041 | > 5000 |
| {C20 diacid-γGlu}-KCNTATCTVDRLAHQIYQFTDKDKDNVAPPTNVGSNG[Hyp]-NH2 (disulfide 2-7 (inferred); ends not checked) [SEQ ID NO: 4] | 0.006 | > 5000 |

Results, then the binder that gave them:

| hAMY3R EC50 (cAMP) (hAMY3R) [nM] | hAM1R EC50 (cAMP) (hAM1R) [nM] | Binder |
| --- | --- | --- |
| 0.145 | > 5000 | GCRTGTCTVQWLAHQIYQFTDKDKDNVAPRSNIGPQG[Hyp]-NH2 (disulfide 2-7 (inferred); ends not checked) [SEQ ID NO: 359] |
| 0.165 | > 5000 | GCRTGTCTVQWLAHQIYQFTDKDKDNVAPRSNVSPNG[Hyp]-NH2 (disulfide 2-7 (inferred); ends not checked) [SEQ ID NO: 360] |
| 0.006 | 0.913 | KCNFATCTVQRLAHQIYQFTDKDKDNVAPRTKVGSNGY [SEQ ID NO: 361] |
| 0.071 | > 5000 | GCRTGTCTVQWLAHQIYQFTDKDKDNVAPRTNVSPNG[Hyp]-NH2 (disulfide 2-7 (inferred); ends not checked) [SEQ ID NO: 358] |
| 0.14 | > 5000 | GCRTGTCTVQWLAHQIYQFTDKDKDNVAPRSKIGPNG[Hyp]-NH2 (disulfide 2-7 (inferred); ends not checked) [SEQ ID NO: 355] |
| 0.01 | 1.77 | KCNFATCATQRLANFLVQFTDKDKDNVAPRSKIGPQGY [SEQ ID NO: 363] |
| 0.01 | 13.6 | GCRFGTCTVQRLAHFLYQFTDKDKDNVAPRTNIGPQGY [SEQ ID NO: 364] |
| 0.014 | 0.563 | GCRFGTCTVQRLAHQIYQFTDKDKDNVAPRTKIGPNGY [SEQ ID NO: 367] |
| 0.012 | 1.21 | GCRFGTCTVQRLAHFLYQFTDKDKDNVAPRTKIGPQGY [SEQ ID NO: 365] |
| 0.115 | > 5000 | GCRTGTCTVQWLAHQIYQFTDKDKDNVAPRTKIGPQG[Hyp]-NH2 (disulfide 2-7 (inferred); ends not checked) [SEQ ID NO: 357] |
| 0.079 | > 5000 | GCRTGTCTVQWLAHQIYQFTDKDKDNVAPRTNIGPQGY [SEQ ID NO: 356] |
| 0.007 | 18.1 | GCRFGTCTVQRLAHQIYQFTDKDKDNVAPRTNVGPQGY [SEQ ID NO: 362] |
| 0.091 | > 5000 | GCRTGTCTVQWLAHQIYQFTDKDKDNVAPRTKVGPQGY [SEQ ID NO: 354] |
| 0.013 | 12.1 | GCRFGTCTVQRLAHQIYQFTDKDKDNVAPRTNISPNGY [SEQ ID NO: 366] |
